Laboratory results published in US20060275211A1 (AGENSYS, published 2006).
Values belong to the binder of their own block, whether it stands above or below them.

Tests used:
[1] = target: T1, mouse 161P2F10B expressed on 293T cells (mouse, UniProt Q6DYE8 1-874); experiment: FACS: 293T-mouse 161P2F10B cells (open line) vs 293T-neo cells (filled), MAb 2 µg/mL, anti-hIgG-PE
T1 construct: whole, on cells; also called murine 161P2F10B; mouse 161P2F10B ortholog
Protocol: Cross reactivity of human MAbs on mouse 161P2F10B. […] Antibodies bound on the cells were detected using anti-hIgG-PE and analyzed on FACS. Data were analyzed using CellQuest Pro software. The solid purple line is data from negative control cells. The green line is from 161P2F10B-positive cells.

[2] = target: T2, Tag5-161P2F10B, purified recombinant extracellular domain (ECD) of 161P2F10B (amino acids 46-875) (human, UniProt O14638 46-875); experiment: SPR, MAb captured on CM5 chip, recombinant 161P2F10B 1-100 nM injected
T2 construct: also called recombinant 161P2F10B; Tag5-161P2F10B-ECD
Description: Briefly, each purified human MAb is captured onto a CM5 sensor chip surface. On average approximately 150 RUs of each MAb is captured in every cycle.

T1 sequence (Q6DYE8 whole entry): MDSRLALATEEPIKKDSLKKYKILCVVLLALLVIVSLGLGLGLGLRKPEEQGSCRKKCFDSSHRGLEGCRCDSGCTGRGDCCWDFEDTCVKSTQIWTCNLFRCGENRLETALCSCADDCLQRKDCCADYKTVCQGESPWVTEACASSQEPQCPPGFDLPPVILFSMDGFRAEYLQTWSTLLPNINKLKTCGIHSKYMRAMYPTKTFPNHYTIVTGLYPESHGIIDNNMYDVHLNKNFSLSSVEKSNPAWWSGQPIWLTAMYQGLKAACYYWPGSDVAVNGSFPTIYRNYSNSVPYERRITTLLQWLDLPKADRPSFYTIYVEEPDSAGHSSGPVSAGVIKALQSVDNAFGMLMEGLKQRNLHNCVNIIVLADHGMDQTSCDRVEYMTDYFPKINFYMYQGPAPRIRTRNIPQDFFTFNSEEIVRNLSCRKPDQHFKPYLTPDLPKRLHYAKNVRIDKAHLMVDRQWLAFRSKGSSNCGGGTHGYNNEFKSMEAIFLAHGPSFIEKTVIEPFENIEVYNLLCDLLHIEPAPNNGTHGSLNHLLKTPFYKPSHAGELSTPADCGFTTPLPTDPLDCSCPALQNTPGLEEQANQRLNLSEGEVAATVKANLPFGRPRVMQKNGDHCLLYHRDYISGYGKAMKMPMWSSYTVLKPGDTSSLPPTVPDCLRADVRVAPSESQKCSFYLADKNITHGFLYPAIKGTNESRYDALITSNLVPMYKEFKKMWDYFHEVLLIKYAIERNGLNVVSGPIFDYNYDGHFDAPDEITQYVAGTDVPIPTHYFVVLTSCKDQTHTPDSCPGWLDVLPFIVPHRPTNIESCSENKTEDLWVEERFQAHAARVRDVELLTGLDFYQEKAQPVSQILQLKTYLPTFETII

- binding result [1]: binds
B1: H16-7.8 (antibody, V domains shown)
VH: QVQLQESGPGLVKPSQTLSLTCTVSGGSISSGGYYWSWIRQHPGKGLEWIGIIYYSGSTYYNPSLKSRVTISVDTSKNQFSLKLNSVTAADTAVFYCARVAIVTTIPGGMDVWGQGTTVTVSS
VL: EIVLTQSPDFQSVTPKEKVTITCRASQSIGISLHWYQQKPDQSPKLLIKYASQSFSGVPSRFSGSGSGTDFTLTINSLEAEDAATYYCHQSRSFPWTFGQGTKVEIKR
notes: Entries include the leader and a portion of the constant region

- Kd [2]: 9 nM
B2: H16-7.200 (antibody, V domains shown)
VH: QVQLQESGPGLVKPSQTLSLTCTVSGGSITSGDYYWSWIRQHPGKGLEWFGFIYYSGSAYYNPSLKSRITISVDTSKNQFSLKLSSVTAADTAVYYCARERNYGGNSFDYWGQGTLVTVSS
VL: not shown
notes: Entries include the leader (VL: part of it) and a portion of the constant region; also called HA16-7.200
